Source: US20080207501A1

Legend:
Amylin RBA (rat) = Amylin RBA (rat) (UniProt P32214); assay: radioligand binding assay (displacement of radiolabeled amylin)
CGRP RBA = CGRP RBA (UniProt Q16602); assay: radioligand binding assay (displacement of radiolabeled CGRP)
[1] = biological target: T1, calcitonin receptor of T47D cells (UniProt P30988); assay: cell-based or functional assay
T1 sequence (looked up): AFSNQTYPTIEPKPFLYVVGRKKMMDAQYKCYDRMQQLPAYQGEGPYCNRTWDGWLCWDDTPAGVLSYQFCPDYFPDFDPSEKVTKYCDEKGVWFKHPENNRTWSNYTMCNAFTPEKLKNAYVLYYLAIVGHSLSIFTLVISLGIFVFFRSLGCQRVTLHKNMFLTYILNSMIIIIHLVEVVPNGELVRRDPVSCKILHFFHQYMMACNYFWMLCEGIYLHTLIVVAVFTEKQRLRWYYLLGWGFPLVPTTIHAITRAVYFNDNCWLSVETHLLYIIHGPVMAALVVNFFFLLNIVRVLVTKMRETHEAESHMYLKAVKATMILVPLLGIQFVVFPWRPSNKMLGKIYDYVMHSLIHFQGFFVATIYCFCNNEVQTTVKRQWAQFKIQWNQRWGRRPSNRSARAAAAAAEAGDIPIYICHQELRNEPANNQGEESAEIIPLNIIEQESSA

[2] = biological target: calcitonin receptor of CHO cells; assay: cell-based or functional assay
[3] = biological target: CGRP receptor (membranes prepared from SK-N-MC cells) (UniProt Q16602); assay: radioligand displacement, 125I-hCGRP, SK-N-MC cell membranes
Sequence of CGRP receptor (membranes prepared from SK-N-MC cells) (Q16602 23-461 limits assumed, chain 1 of 2): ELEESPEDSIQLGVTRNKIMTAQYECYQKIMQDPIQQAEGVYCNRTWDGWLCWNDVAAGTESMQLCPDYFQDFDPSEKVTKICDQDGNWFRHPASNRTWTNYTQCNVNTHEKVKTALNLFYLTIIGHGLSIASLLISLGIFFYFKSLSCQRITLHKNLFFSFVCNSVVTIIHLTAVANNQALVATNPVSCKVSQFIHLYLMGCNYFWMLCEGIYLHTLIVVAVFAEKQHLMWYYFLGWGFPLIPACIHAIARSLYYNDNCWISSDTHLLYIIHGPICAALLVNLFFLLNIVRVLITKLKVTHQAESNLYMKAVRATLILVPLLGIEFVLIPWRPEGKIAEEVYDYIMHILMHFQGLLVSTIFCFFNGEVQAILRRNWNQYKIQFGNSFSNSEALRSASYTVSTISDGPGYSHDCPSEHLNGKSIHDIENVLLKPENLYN
Sequence of CGRP receptor (membranes prepared from SK-N-MC cells) (O60894 27-148 limits assumed, chain 2 of 2, further chain): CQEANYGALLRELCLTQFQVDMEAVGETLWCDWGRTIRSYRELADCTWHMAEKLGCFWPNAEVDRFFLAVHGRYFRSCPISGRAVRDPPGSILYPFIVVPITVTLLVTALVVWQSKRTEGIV

[4] = biological target: calcitonin receptor (receptor binding assay); assay: rCalcitonin RBA, method not described

Sequence of Amylin RBA (rat) (P32214 other isoform, or with tags, fused parts or gaps, chain 1 of 2): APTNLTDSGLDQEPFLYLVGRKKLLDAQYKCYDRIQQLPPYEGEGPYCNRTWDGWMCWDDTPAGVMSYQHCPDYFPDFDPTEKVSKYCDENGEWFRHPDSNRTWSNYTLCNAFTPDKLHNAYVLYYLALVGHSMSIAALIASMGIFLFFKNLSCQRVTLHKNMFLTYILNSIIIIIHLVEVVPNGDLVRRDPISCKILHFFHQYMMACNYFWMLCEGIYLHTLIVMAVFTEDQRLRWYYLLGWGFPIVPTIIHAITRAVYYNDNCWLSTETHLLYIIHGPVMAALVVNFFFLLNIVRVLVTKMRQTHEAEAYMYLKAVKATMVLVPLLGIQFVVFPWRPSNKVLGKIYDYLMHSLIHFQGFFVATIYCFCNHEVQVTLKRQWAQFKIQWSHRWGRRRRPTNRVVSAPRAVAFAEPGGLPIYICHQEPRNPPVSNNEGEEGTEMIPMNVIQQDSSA
Sequence of Amylin RBA (rat) (Q9JJ74 27-148, chain 2 of 2, further chain): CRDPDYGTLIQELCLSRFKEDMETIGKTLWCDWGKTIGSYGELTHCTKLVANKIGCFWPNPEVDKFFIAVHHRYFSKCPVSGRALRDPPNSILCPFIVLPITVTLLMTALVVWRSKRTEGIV
Sequence of CGRP RBA (Q16602 23-461, chain 1 of 2): as the sequence (Q16602 23-461 limits assumed, chain 1 of 2) above
Sequence of CGRP RBA (O60894 27-148, chain 2 of 2, further chain): as the sequence (O60894 27-148 limits assumed, chain 2 of 2, further chain) above

AFP-6 (1-31)
EC50 (Amylin RBA (rat)): > 100 nM

AFP-6 [1-31]
EC50 (CGRP RBA): 277 nM

Human CGRP α (peptide)
EC50, cAMP (AlphaScreen), T47D cells, Average [1]: 35.5 nM
EC50, cAMP (AlphaScreen), T47D cells, Experiment 1 [1]: 11.9 nM
EC50, cAMP (AlphaScreen), T47D cells, Experiment 2 [1]: 66.7 nM
EC50, cAMP (AlphaScreen), T47D cells, Experiment 3 [1]: 27.8 nM
EC50, cAMP (AlphaScreen), CHO cells, Average [2]: 80.4 nM
EC50, cAMP (AlphaScreen), CHO cells, Experiment 1 [2]: 70.3 nM
EC50, cAMP (AlphaScreen), CHO cells, Experiment 2 [2]: 81.2 nM
EC50, cAMP (AlphaScreen), CHO cells, Experiment 3 [2]: 89.7 nM

r/h Amylin (from UniProt P12969 38-74) (peptide)
IC50 [3]: 12 nM

r/h Calcitonin (peptide)
IC50 [4]: 1.3 to 3.4 nM
